According to publication PMC9628480, “Discovery and structural characterization of chicoric acid as a SARS-CoV-2 nucleocapsid protein ligand and RNA binding disruptor”:

Molecular target: SARS-CoV-2 nucleocapsid (N) protein, full-length (SARS-CoV-2 (protein amplified from …, UniProt A0A6B9VLF5 1-419))
Experiment: fluorescence polarization
Details: protein: recombinant; tags: 6xHis (pET28a-TEV), not cleaved; chain copies: 2; label: 5'-FITC; hairpin

CACUCACUGUCAAAAAAGAUGGUAGAGU (structured_RNA) [RNA2 (UUUUUU to AAAAAA)]
Kd: 498 ± 43.2 nM
